# Data reported in ChEMBL document CHEMBL4033784, “Discovery of 1,5-Diphenylpyrazole-3-Carboxamide Derivatives as Potent, Reversible, and Selective Monoacylglycerol Lipase (MAGL) Inhibitors” (J Med Chem, 2018).
# B1: Monoglyceride lipase (Homo sapiens), Q99685 (protein)
# chain: MPEESSPRRTPQSIPYQDLPHLVNADGQYLFCRYWKPTGTPKALIFVSHGAGEHSGRYEELARMLMGLDLLVFAHDHVGHGQSEGERMVVSDFHVFVRDVLQHVDSMQKDYPGLPVFLLGHSMGGAIAILTAAERPGHFAGMVLISPLVLANPESATTFKVLAAKVLNLVLPNLSLGPIDSSVLSRNKTEVDIYNSDPLICRAGLKVCFGIQLLNAVSRVERALPKLTVPFLLLQGSADRLCDSKGAYLLMELAKSQDKTLKIYEGAYHVLHKELPEVTNSVFHEINMWVSQRTATAGTASPP
# Substrate: Cc1cccc(Cn2nc(C(=O)N3CCC(Cc4ccccc4)CC3)cc2-c2ccc(O)cc2)c1
# Settings: Homo sapiens
# Description: Competitive inhibition of recombinant human MAGL assessed as substrate Km using 4-NPA as substrate after 30 mins by Michaelis-Menten plot analysis
protein,measurement,value
B1,Km,210 µM
